Target: CH848TF gp120 monomeric protein (HIV-1 CH848 transmitted-founder …, UniProt A0A1W6IPB2, strain, N-linked glycans)
Experiment: ELISA

B1: 2G12 IgG (antibody, V domains shown)
VH: EVQLVESGGGLVKAGGSLILSCGVSNFRISAHTMNWVRRVPGGGLEWVASISTSSTYRDYADAVKGRFTVSRDDLEDFVYLQMHKMRVEDTAIYYCARKGSDRLSDNDPFDAWGPGTVVTVSP
VL: DVVMTQSPSTLSASVGDTITITCRASQSIETWLAWYQQKPGKAPKLLIYKASTLKTGVPSRFSGSGSGTEFTLTISGLQFDDFATYHCQHYAGYSATFGQGTRVEIK
binding result: binds

From doi:10.1101/2020.06.30.178921 (bioRxiv, 2020)
